Experimental data: patent US8227408B2, “Leptin as an anti-amyloidogenic biologic and methods for delaying the onset and reducing Alzheimer's disease-like pathology” (Neurotez, Inc., priority 2005, dated 2012)

Assays:
primary neurons = experiment: Filipin staining of primary neurons; type: cell-based, rat; settings: about 5 h
Protocol: Leptin was detected using a rabbit polyclonal antibody raised against mouse leptin, corss-reacting with human leptin (obtained from Dr. A. F. Parlow, Harbor-UCLA, CA). Immunofluorescent confocal microscopy was performed on 2% paraformaldehyde-fixed primary neural cells. Filipin staining was performed as described (Feng et al., Nat Cell Biol. 5:781-92 (2003)).
Neural cultures from ε15 rat cerebral cortex were processed for enrichment of neurons (a-d) or astrocytes (e-h) as described (Takeshima et al., J. Neurosci. Methods 67: 27-41 (1996)). After about 7 days to about 10 days in culture, cultures were treated for about 5 h with about 10 μg/ml cholesterol (b, f) or about 400 ng/ml leptin plus cholesterol (c, g) or leptin alone (d, h). Controls (a, e) were treated with culture media alone. Filipin staining was performed as described (Feng et al., Nat. Cell Biol. 5: 781-92 (2003)). Neurons (i-k) and astrocytes (l-n) prepared as above were treated with 0 μM (i, l), 5 μM (j, m) or 10 μM cholesterol (k, n) for 5 h. Immunostaining was performed for leptin (A.F.Parlow, Harbor-UCLA, CA).

[1] = test system: Neuro2a cells stably transfected with hyg-sa134 (SEAP-APP); experiment: Aβ production by Neuro2a cells stably transfected with hyg-sa134 (total Aβ in media, sandwich ELISA); type: cell-based, mouse; settings: 5 h; about 400 ng/ml leptin alone or 10 μM water-soluble cholesterol alone; FIG. 4b
β-secretase = experiment: C99/C83 accumulation in SY5Y cells in presence of γ-secretase inhibitors (Western blot); type: cell-based, human; settings: 5 h
SY5Y cells = experiment: 125I-Aβ uptake by SY5Y cells (apoE-dependent); type: cell-based, human
Protocol: Preparation of ApoE and binding with ^125I-Aβ. ApoE was isolated from the conditioned media of human embryonic kidney (HEK-293) cells stably-transfected with human apoE (having the ε3 allele or the ε4 allele) cDNA (Tezapsidis et al., FASEB J. 17:1322-1324 (2003)). These preparations, while usually poor in lipid, are fully functional for uptake experiments. ApoE then was pre-incubated with ^125I-Aβ overnight at 37° C. (Aβ/ApoE: 1/50 w/w) as described (Tezapsidis et al., FASEB J. 17:1322-1324 (2003)).
Aβ-uptake by SY5Y cells. Human ^125I-Aβ (iodinated at Tyr-10, Amersham Biosciences, IM 294) uptake was measured following addition of 0.1 nM ^125I-Aβ40 (SEQ ID NO: 4) to confluent SY5Y cells (60,000 cpm/ml) in the presence or absence of 100 ng/ml or 400 ng/ml leptin also included in a 24 h pre-incubation period. ^125I-Aβ was either added alone or was previously incubated with apoε3. In controls, Receptor Associated Protein (“RAP”, 1 μM) was added together with Aβ or the Aβ/apoE complex. RAP is an antagonist of a number of lipoprotein receptors (LaDu et al., Neurochem Int. 39:427-34 (2001)). After 24 h, the media were collected and subjected to scintillation counting for γ-Iradiation (Kang et al., 2000. J Clin Invest. 106:1159-66 (2000)). The amount of radioactivity was measured in both the trichloroacetic acid (10%) TCA pellets (representing intact Aβ) and the corresponding supernatants (representing degraded Aβ). 96.5±8.2% (mean±s.e.m., n=4 experiments, triplicate determinations) of the radioactivity found in the medium could be recovered in the TCA pellet and represented intact or oligomeric Aβ (not shown), when Aβ was pre-incubated with apoE.
The amount of TCA-precipitable radioactivity in the soluble fraction of cell lysates was compared to that in the total lysates, the ratio of which was typically about 0.8 to about 0.9 (not shown), to further verify that radioactivity was reduced in the media as a reflection of Aβ uptake by the cells, rather than due to non-specific binding to the extracellular surface of membranes or oligomerization/aggregation of Aβ.
In panel (a), Aβ uptake was measured in SY5Y cells following their treatment at 0 ng/ml, 100 ng/ml or 400 ng/ml leptin. Uptake also was measured in cells previously transfected with antisense DNA for PS1 as described (Tezapsidis et al., FASEB J. 17:1322-1324(2003)) (black). Uptake is expressed as the percentage of that observed with Aβ pre-incubated with apoε3 (medium gray) in the absence of leptin (first set of columns). […] Leptin induced a dose-dependent increase in Aβ uptake with a preference for apoε3 (medium gray) over apoε4 (light gray). In panel (b), SY5Y cells were pre-treated with […] cholesterol (+Chol) or normal medium (−Chol). Then Aβ uptake was measured following its preincubation with apoε3 (ε3) or apoε4 (ε4) in the absence (black) or the presence (gray) of about 400 ng/ml leptin. Cells were more resistant to taking-up Aβ when loaded with cholesterol. […] In panel (c), SY5Y cells were transiently transfected with SREBP-1 or SREBP-2 cDNA or an empty vector (Control). Then Aβ was measured in the medium by ELISAs (Figueiredo-Pereira et al., J Neurochem. 72:1417-22 (1999)) following treatment with (+) or without (−) leptin. […] In panel (d), Aβ uptake was measured in SY5Y cells prepared as in panel (c). Uptake was performed using Aβ/apoε3 complexes.

B1: Leptin: peptide hormone controlling adaptive metabolic mechanisms to energy availability; leptin (Harbor-UCLA) in vitro, recombinant murine leptin in mice (protein, UniProt P41160 22-167, looked up)
Leptin: VPIQKVQDDTKTLIKTIVTRINDISHTQSVSAKQRVTGLDFIPGLHPILSLSKMDQTLAVYQQVLTSLPSQNVLQIANDLENLRDLLHLLAFSKSCSLPQTSGLQKPESLDGVLEASLYSTEVVALSRLQGSLQDILQQLDVSPEC
- increase in filipin labelling by cholesterol (primary neurons; neurons, leptin about 400 ng/ml plus cholesterol about 10 μg/ml): prohibited an increase
- filipin labelling (primary neurons; primary neurons, about 400 ng/ml leptin): diminished filipin labelling
- levels of Aβ detected in the media (percentage of corresponding controls) [1]: 56±5%
- cholesterol-induced increase in C99 (β-secretase; 10 μM cholesterol in the presence of 400 ng/ml leptin): abolished
- C99 level (β-secretase; with L-685,458 (100 nM) or Z-VL-CHO (100 μM), 10 μM cholesterol or 400 ng/ml leptin alone): also was observed in the absence of cholesterol
- uptake of apoE-Aβ (SY5Y cells; 100 ng/ml or 400 ng/ml leptin, 24 h pre-incubation and uptake): increased the uptake of apoE-Aβ in a dose-dependent fashion
- Aβ uptake phenotype of cholesterol-loaded cells (SY5Y cells; about 400 ng/ml leptin during cholesterol pre-incubation and during uptake): almost completely reversed
